Patent US20200297818A1 (ZEALAND PHARMA A S, published 2020)

What was measured:
[1] = target: human glucagon-like peptide 1 receptor (GLP-1 R) (human, UniProt P43220 24-463); assay: cell-based or functional assay
[2] = target: T1, human GLP-2 receptor (hGLP2-R) (human, UniProt O95838 1-553); assay: cell-based or functional assay
T1 sequence (looked up): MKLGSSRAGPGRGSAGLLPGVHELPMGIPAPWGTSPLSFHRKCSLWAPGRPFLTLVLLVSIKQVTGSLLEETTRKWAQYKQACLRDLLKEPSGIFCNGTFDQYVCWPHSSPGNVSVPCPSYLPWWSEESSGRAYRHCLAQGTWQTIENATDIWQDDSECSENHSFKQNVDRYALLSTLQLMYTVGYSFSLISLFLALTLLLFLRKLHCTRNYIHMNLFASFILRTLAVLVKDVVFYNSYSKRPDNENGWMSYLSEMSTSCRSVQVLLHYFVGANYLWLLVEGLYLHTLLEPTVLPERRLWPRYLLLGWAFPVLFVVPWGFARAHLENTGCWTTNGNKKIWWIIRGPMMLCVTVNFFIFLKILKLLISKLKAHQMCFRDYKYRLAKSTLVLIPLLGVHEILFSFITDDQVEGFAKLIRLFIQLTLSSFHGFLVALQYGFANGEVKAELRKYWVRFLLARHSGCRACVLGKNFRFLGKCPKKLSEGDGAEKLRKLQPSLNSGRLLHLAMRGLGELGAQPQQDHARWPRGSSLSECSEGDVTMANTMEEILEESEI

B1: Compound 14 (peptide)
peptide: HXEGSFTSELATILDXLAARDFIAWLIAHKITD
HELM: PEPTIDE1{H.[Aib].E.G.S.F.T.S.E.L.A.T.I.L.D.K.L.A.A.R.D.F.I.A.W.L.I.A.H.K.I.T.D}|PEPTIDE2{[O=C(O)CCCCCCCCCCCCCCCCC(=O)[*:2]].[gGlu]}$PEPTIDE1,PEPTIDE2,16:R3-2:R2$$$V2.0
SMILES: CC[C@H](C)[C@H](NC(=O)[C@H](CC(C)C)NC(=O)[C@H](Cc1c[nH]c2ccccc12)NC(=O)[C@H](C)NC(=O)[C@@H](NC(=O)[C@H](Cc1ccccc1)NC(=O)[C@H](CC(=O)O)NC(=O)[C@H](CCCNC(=N)N)NC(=O)[C@H](C)NC(=O)[C@H](C)NC(=O)[C@H](CC(C)C)NC(=O)[C@H](CCCCNC(=O)CC[C@H](NC(=O)CCCCCCCCCCCCCCCCC(=O)O)C(=O)O)NC(=O)[C@H](CC(=O)O)NC(=O)[C@H](CC(C)C)NC(=O)[C@@H](NC(=O)[C@@H](NC(=O)[C@H](C)NC(=O)[C@H](CC(C)C)NC(=O)[C@H](CCC(=O)O)NC(=O)[C@H](CO)NC(=O)[C@@H](NC(=O)[C@H](Cc1ccccc1)NC(=O)[C@H](CO)NC(=O)CNC(=O)[C@H](CCC(=O)O)NC(=O)C(C)(C)NC(=O)[C@@H](N)Cc1c[nH]cn1)[C@@H](C)O)[C@@H](C)O)[C@@H](C)CC)[C@@H](C)CC)C(=O)N[C@@H](C)C(=O)N[C@@H](Cc1c[nH]cn1)C(=O)N[C@@H](CCCCN)C(=O)N[C@H](C(=O)N[C@H](C(=O)N[C@@H](CC(=O)O)C(=O)O)[C@@H](C)O)[C@@H](C)CC
- EC50 GLP-1 (nM); cAMP response [1]: 0.57 nM
- EC50 GLP-2 (nM); cAMP response [2]: 0.086 nM

B2: Compound 15 (peptide)
peptide: HXEGTFTSELATILDXLAARDFIAWLIAHKITD
HELM: PEPTIDE1{H.[Aib].E.G.T.F.T.S.E.L.A.T.I.L.D.K.L.A.A.R.D.F.I.A.W.L.I.A.H.K.I.T.D}|PEPTIDE2{[O=C(O)CCCCCCCCCCCCCCCCC(=O)[*:2]].[gGlu]}$PEPTIDE1,PEPTIDE2,16:R3-2:R2$$$V2.0
SMILES: CC[C@H](C)[C@H](NC(=O)[C@H](CC(C)C)NC(=O)[C@H](Cc1c[nH]c2ccccc12)NC(=O)[C@H](C)NC(=O)[C@@H](NC(=O)[C@H](Cc1ccccc1)NC(=O)[C@H](CC(=O)O)NC(=O)[C@H](CCCNC(=N)N)NC(=O)[C@H](C)NC(=O)[C@H](C)NC(=O)[C@H](CC(C)C)NC(=O)[C@H](CCCCNC(=O)CC[C@H](NC(=O)CCCCCCCCCCCCCCCCC(=O)O)C(=O)O)NC(=O)[C@H](CC(=O)O)NC(=O)[C@H](CC(C)C)NC(=O)[C@@H](NC(=O)[C@@H](NC(=O)[C@H](C)NC(=O)[C@H](CC(C)C)NC(=O)[C@H](CCC(=O)O)NC(=O)[C@H](CO)NC(=O)[C@@H](NC(=O)[C@H](Cc1ccccc1)NC(=O)[C@@H](NC(=O)CNC(=O)[C@H](CCC(=O)O)NC(=O)C(C)(C)NC(=O)[C@@H](N)Cc1c[nH]cn1)[C@@H](C)O)[C@@H](C)O)[C@@H](C)O)[C@@H](C)CC)[C@@H](C)CC)C(=O)N[C@@H](C)C(=O)N[C@@H](Cc1c[nH]cn1)C(=O)N[C@@H](CCCCN)C(=O)N[C@H](C(=O)N[C@H](C(=O)N[C@@H](CC(=O)O)C(=O)O)[C@@H](C)O)[C@@H](C)CC
- EC50 GLP-1 (nM); cAMP response [1]: 0.25 nM
- EC50 GLP-2 (nM); cAMP response [2]: 0.16 nM
